Biological target: HLA-A*02:01 (Homo sapiens, UniProt P04439, D140Y/D185E/D98H/E176V/E277Q/G131W/G231S/I119V/I121R/I166T/I218V/L300P/L318F/N151K/N90K/P208A/P217A/Q86G/Q94H/R138H/R169H/T345S)
Test: MHC binding assay (UV-ligand exchange, beta2m ELISA)
Conditions: binding to HLA-A*02:01, β2m ELISA
Description: Candidate peptides for T cell based therapies according to the present invention were further tested for their MHC binding capacity (affinity). The individual peptide-MHC complexes were produced by UV-ligand exchange, where a UV-sensitive peptide is cleaved upon UV-irradiation, and exchanged with the peptide of interest as analyzed. Only peptide candidates that can effectively bind and stabilize the peptide-receptive MHC molecules prevent dissociation of the MHC complexes. To determine the yield of the exchange reaction, an ELISA was performed based on the detection of the light chain (β2m) of stabilized MHC complexes. The assay was performed as generally described in Rodenko et al. (Rodenko et al., 2006).
96 well MAXISorp plates (NUNC) were coated over night with 2 ug/ml streptavidin in PBS at room temperature, washed 4× and blocked for 1 h at 37° C. in 2% BSA containing blocking buffer. Refolded HLA-A*02:01/MLA-001 monomers served as standards, covering the range of 15-500 ng/ml. Peptide-MHC monomers of the UV-exchange reaction were diluted 100 fold in blocking buffer. Samples were incubated for 1 h at 37° C., washed four times, incubated with 2 ug/ml HRP conjugated anti-β2m for 1 h at 37° C., washed again and detected with TMB solution that is stopped with […]. Absorption was measured at 450 nm. Candidate peptides that show a high exchange yield (preferably higher than 50%, most preferred higher than 75%) are generally preferred for a generation and production of antibodies or fragments thereof, and/or T cell receptors or fragments thereof, as they show sufficient avidity to the MHC molecules and prevent dissociation of the MHC complexes.

| Substance | Peptide exchange (MHC class I binding score, peptide exchange yield) |
| --- | --- |
| 49 (KLIGNIHGNEV; listed as Homo sapiens) [compound 49] | ++ (≧20% = ++) |
| 155 (TLDSYLKAV; listed as Homo sapiens) [compound 155] | ++ (≧20% = ++) |
| 45 (FLPVSVVYV; listed as Homo sapiens) [compound 45] | +++ (≧50 = +++) |
| 148 (YLILSSHQL; listed as Homo sapiens) [compound 148] | +++ (≧50 = +++) |
| 126 (QLREAFEQL; listed as Homo sapiens) [compound 126] | +++ (≧50 = +++) |
| 230 (KLLNMIFSI; listed as Homo sapiens) [compound 230] | +++ (≧50 = +++) |
| 247 (NLLIDDKGTIKL; listed as Homo sapiens) [compound 247] | ++ (≧20% = ++) |
| 235 (SLLNQPKAV; listed as Homo sapiens) [compound 235] | ++ (≧20% = ++) |
| 261 (GLAALAVHL; listed as Homo sapiens) [compound 261] | +++ (≧50 = +++) |
| 22 (LMYPYIYHV; listed as Homo sapiens) [compound 22] | +++ (≧50 = +++) |
| 211 (LLTTVLINA; listed as Homo sapiens) [compound 211] | +++ (≧50 = +++) |
| 129 (KMASKVTQV; listed as Homo sapiens) [compound 129] | ++ (≧20% = ++) |
| 184 (ALDSTIAHL; listed as Homo sapiens) [compound 184] | ++ (≧20% = ++) |
| 103 (YLADTVQKL; listed as Homo sapiens) [compound 103] | ++ (≧20% = ++) |
| 153 (KLVELEHTL; listed as Homo sapiens) [compound 153] | +++ (≧50 = +++) |
| 113 (FLFLKEVKV; listed as Homo sapiens) [compound 113] | ++ (≧20% = ++) |
| 116 (ALLSSVAEA; listed as Homo sapiens) [compound 116] | ++ (≧20% = ++) |
| 151 (DISKRIQSL; listed as Homo sapiens) [compound 151] | ++ (≧20% = ++) |
| 125 (AALEVLAEV; listed as Homo sapiens) [compound 125] | +++ (≧50 = +++) |
| 243 (GLAEFQENV; listed as Homo sapiens) [compound 243] | ++ (≧20% = ++) |
| 143 (MLWESIMRV; listed as Homo sapiens) [compound 143] | +++ (≧50 = +++) |

| Substance | Peptide exchange (MHC class I binding score, peptide exchange yield) |
| --- | --- |
| 275 (AVPPPPSSV; listed as Homo sapiens) [compound 275] | ++ (≧20% = ++) |
| 195 (VIIQNLPAL; listed as Homo sapiens) [compound 195] | +++ (≧50 = +++) |
| 216 (ALSTVTPRI; listed as Homo sapiens) [compound 216] | ++ (≧20% = ++) |
| 71 (HMSGKLTNV; listed as Homo sapiens) [compound 71] | ++ (≧20% = ++) |
| 18 (KTASINQNV; listed as Homo sapiens) [compound 18] | ++ (≧20% = ++) |
| 88 (LLLPLELSLA; listed as Homo sapiens) [compound 88] | +++ (≧50 = +++) |
| 53 (AQHLSTLLL; listed as Homo sapiens) [compound 53] | + (≧10% = +) |
| 94 (YLDEVAFML; listed as Homo sapiens) [compound 94] | +++ (≧50 = +++) |
| 36 (TVLQELINV; listed as Homo sapiens) [compound 36] | +++ (≧50 = +++) |
| 217 (LLWPSSVPA; listed as Homo sapiens) [compound 217] | +++ (≧50 = +++) |
| 203 (FLFVDPELV; listed as Homo sapiens) [compound 203] | ++ (≧20% = ++) |
| 134 (SLYKSFLQL; listed as Homo sapiens) [compound 134] | ++ (≧20% = ++) |
| 26 (VLDGKVAVV; listed as Homo sapiens) [compound 26] | +++ (≧50 = +++) |
| 33 (TLDRNSLYV; listed as Homo sapiens) [compound 33] | ++ (≧20% = ++) |
| 90 (AILNVDEKNQV; listed as Homo sapiens) [compound 90] | ++ (≧20% = ++) |
| 24 (KVWSDVTPL; listed as Homo sapiens) [compound 24] | +++ (≧50 = +++) |
| 168 (VIFEGEPMYL; listed as Homo sapiens) [compound 168] | +++ (≧50 = +++) |
| 278 (VLEDKVLSV; listed as Homo sapiens) [compound 278] | +++ (≧50 = +++) |
| 253 (KLLAVIHEL; listed as Homo sapiens) [compound 253] | +++ (≧50 = +++) |
| 99 (TLFGIQLTEA; listed as Homo sapiens) [compound 99] | +++ (≧50 = +++) |
| 273 (SLNKQIETV; listed as Homo sapiens) [compound 273] | ++ (≧20% = ++) |

| Substance | Peptide exchange (MHC class I binding score, peptide exchange yield) |
| --- | --- |
| 87 (KLLSLLEEA; listed as Homo sapiens) [compound 87] | +++ (≧50 = +++) |
| 174 (ALYSGDLHAA; listed as Homo sapiens) [compound 174] | ++ (≧20% = ++) |
| 170 (FIAAVVEKV; listed as Homo sapiens) [compound 170] | ++ (≧20% = ++) |
| 185 (TLYQGLPAEV; listed as Homo sapiens) [compound 185] | ++ (≧20% = ++) |
| 86 (SLFSNIESV; listed as Homo sapiens) [compound 86] | +++ (≧50 = +++) |
| 178 (SLVSWQLLL; listed as Homo sapiens) [compound 178] | ++++ (≧75% = ++++) |
| 210 (GLAGDNIYL; listed as Homo sapiens) [compound 210] | +++ (≧50 = +++) |
| 108 (FIANLPPELKA; listed as Homo sapiens) [compound 108] | +++ (≧50 = +++) |
| 41 (IVTEIISEI; listed as Homo sapiens) [compound 41] | +++ (≧50 = +++) |
| 131 (SLYPHFTLL; listed as Homo sapiens) [compound 131] | +++ (≧50 = +++) |
| 227 (SEMEELPSV; listed as Homo sapiens) [compound 227] | + (≧10% = +) |
| 57 (TLYPGRFDYV; listed as Homo sapiens) [compound 57] | ++ (≧20% = ++) |
| 21 (YLMDDFSSL; listed as Homo sapiens) [compound 21] | +++ (≧50 = +++) |
| 274 (TLYNPERTITV; listed as Homo sapiens) [compound 274] | +++ (≧50 = +++) |
| 180 (RLYEEEIRI; listed as Homo sapiens) [compound 180] | +++ (≧50 = +++) |
| 179 (TLGEIIKGV; listed as Homo sapiens) [compound 179] | +++ (≧50 = +++) |
| 259 (GPGIFPPPPPQP; listed as Homo sapiens) [compound 259] | + (≧10% = +) |
| 67 (FLIENLLAA; listed as Homo sapiens) [compound 67] | +++ (≧50 = +++) |
| 206 (GLDAFRIFL; listed as Homo sapiens) [compound 206] | ++++ (≧75% = ++++) |
| 190 (SLSTELFKV; listed as Homo sapiens) [compound 190] | +++ (≧50 = +++) |

From patent publication US9802997B2, “Peptides and combination of peptides for use in immunotherapy against various tumors” (immatics biotechnologies GmbH, priority 2015, dated 2017)
